Results from US20220061310A1.

Biological target: PDGF receptor PDGFRβ on the surface of 293-SL/PR cells (transformed 293T cell line)
Assay: cell-based or functional assay

bioactivity by luciferase assay in 293-SL/PR reporter cells; PDGF at 30 ng/mL lyophilized with 3 mg/mL collagen (experimental group): 310000 RLU/sec
bioactivity by luciferase assay in 293-SL/PR reporter cells; PDGF solution (control group) at 120 ng/mL: 340000 RLU/sec
Substance: recombinant human PDGF B (rhPDGF B) (from UniProt P01127 82-190) (ligand)
